US20080108569A1, “Compositions and Methods for Treating Diseases Associated With Phlpp” (The Regents of the University of California, priority 2005, published 2008)

Experiments:
Akt [1] = target: T1, Akt (Homo sapiens, UniProt P31749); experiment: dephosphorylation assay with immunoprecipitated full-length HA-PHLPP2 and pure Akt; type: biochemical
T1 construct: 6His; made in house; host or cells: Akt1: baculovirus-infected Sf21 cells; HA-PHLPP2: transfected 293T cells, immunoprecipitated with HA antibody
T1 sequence (P31749 whole entry): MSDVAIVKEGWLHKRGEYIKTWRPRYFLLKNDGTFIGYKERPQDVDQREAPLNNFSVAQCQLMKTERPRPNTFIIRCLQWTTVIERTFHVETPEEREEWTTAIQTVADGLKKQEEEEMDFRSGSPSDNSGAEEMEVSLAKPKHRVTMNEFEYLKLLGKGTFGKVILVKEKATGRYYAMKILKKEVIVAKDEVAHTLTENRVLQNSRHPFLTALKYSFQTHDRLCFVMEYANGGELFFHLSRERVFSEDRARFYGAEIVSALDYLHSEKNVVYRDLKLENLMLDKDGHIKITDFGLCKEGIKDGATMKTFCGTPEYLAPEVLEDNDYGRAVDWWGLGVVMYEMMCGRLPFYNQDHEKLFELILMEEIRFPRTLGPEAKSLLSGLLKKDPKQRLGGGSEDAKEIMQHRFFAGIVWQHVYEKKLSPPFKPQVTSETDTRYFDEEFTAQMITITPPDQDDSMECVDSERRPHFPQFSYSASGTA
Procedure: A GST-fusion protein of PHLPP-1α-PP2C was expressed in BL21 (DE3) and purified using glutathione-Sepharose. The GST-PP2C proteins were eluted from the beads in PBS containing 10 mM glutathione and 1 mM DTT, and dialyzed against 50 mM Tris (pH 7.4) and 1 mM DTT. His-tagged Akt was expressed and purified from baculovirus-infected Sf21 cells. Briefly, Sf21 cells were maintained in SF-900 II media (Invitrogen) and infected with baculovirus encoding His-Akt for 3 days. To obtain maximally phosphorylated Akt as substrate, the infected cells were treated with 10% FBS and calyculin A (100 nM) for 15 minutes prior to lysis. The infected cells were lysed in PBS containing 1% Triton X-100 and 10 mM imidazole, and His-Akt proteins were purified using Ni-NTA beads (Qiagen). The dephosphorylation reactions were carried out in a reaction buffer containing 50 mM Tris (pH 7.4), 1 mM DTT and 5 mM MnCl2 at 30° C. for 0-30 minutes.
GST-PP2C was expressed in BL21 bacterial cells; phosphatase assays were performed using the purified GST-PP2C construct conjugated to glutathione-sepharose and pure Akt as a substrate as described above. The activity of full length HA-PHLPP2 was assessed by expressing and immunoprecipitating PHLPP2 from 293T or H157 cell lysates. Cells were lysed in Buffer 2 (20 mM HEPES, pH 7.4, 1% Triton X-100, 1 mM DTT, 200 mM benzamidine, […] leupeptin, and 1 mM PMSF). […]

Akt [2] = experiment: in vitro kinase assay of Akt immunoprecipitated from 293T cells overexpressing PHLPP2; type: cell-based
Procedure: H157 cells transfected with vector or HA-PHLPP were lysed in buffer A. The detergent-solubilized cell lysates were incubated with an anti-Akt monoclonal antibody (5G3) and Ultra-link protein A/G beads (Pierce) at 4° C. overnight. Beads were washed three times in buffer A and twice in buffer B (25 mM Tris, pH 7.4, 10 mM MgCl2 and 1 mM DTT). In vitro kinase assays were carried out by incubating immunoprecipitated Akt in buffer containing 25 mM Tris, pH 7.4, 10 mM MgCl2 and 1 mM DTT, 200 μM ATP, 6 μM Crosstide (Upstate Biotechnology) and ^32Pγ-ATP at 30° C. for 30 minutes. Each reaction was performed in duplicate. The reactions were spotted onto P81 filter paper (Whatman), and radioactivity incorporated into the peptide was measured using a scintillation counter.
Akt was immunoprecipitated from cell lysates using Akt agarose (Upstate Biotechnologies) and kinase reactions were performed using an Akt kinase assay kit (Cell Signaling) as described previously in Example 5.

PKC, p90RSK, or p70S6K = experiment: phosphorylation of the hydrophobic motif in other AGC family kinases on PHLPP2 expression (Western blot); type: cell-based; settings: 293T and H157 cells
Procedure: (§1) ZR-75-1 cell lines were maintained in RPMI 1640 (Cellgro), and all other cell lines were maintained in DMEM (Celigro); both media were supplemented with 10% FBS and 1% penicillin/streptomycin. Cells were maintained at 37° C. in 5% CO2. Transient transfections and siRNA experiments were performed as previously described (6), except for ZR-75-1 cells, which were transfected using FuGENE reagent (Roche). For immunoblotting, transfected cells were lysed in Buffer 1 (50 mM Na2HPO4, pH 7.5, 1 mM sodium pyrophosphate, 20 mM NaF, 2 mM EDTA, 2 mM EGTA, 1% SDS, 1 mM DTT, 200 mM benzamidine, […] leupeptin, and 1 mM PMSF) and sonicated for 5 seconds. Lysates containing equal protein were analyzed on SDS-PAGE gels, and individual blots were probed using each antibody. Densitometric analysis was performed with the NIH Image analysis software (version 1.63).

H157 cells [3] = experiment: G1/S ratio by flow cytometry, PHLPP2 expression; type: cell-based; settings: high serum (10% FBS), 48 hrs
Procedure: (§2) Apoptotic assays were performed as described above. To determine G1/S ratios, cells were co-transfected with GFP and HA-PHLPP2 and incubated under high serum (10% FBS) conditions for 48 hrs and cells were gated based on GFP expression as described above. For BrdU incorporation assays, cells were transfected with 100 nM siRNA (si-1) and incubated for 48 hrs prior to performing assay following manufacturers protocol (Oncogene Research Products).

293T cells = experiment: G1/S ratio by flow cytometry, PHLPP2 expression; type: cell-based; settings: high serum (10% FBS), 48 hrs
Procedure: as §2

MDA-MB-231 cells = experiment: apoptosis assay, sub-2N DNA by flow cytometry; type: cell-based; settings: from 2.9+0.9 without PHLPP2
Procedure: (§3) Apoptosis assays were performed as described previously (Brognard et al., 2001). Briefly, cells were transfected with different PHLPP expression constructs or siRNAs. In the case of gating for transfected cells, a GFP expression construct was co-transfected into the cells. Approximately 24 hours post-transfection, the cells were switched to low serum medium (DMEM plus 0.1% FBS) and allowed to grow for an additional 48 hours. For LY294002 (25 μM) treatment, the drug was added at the time when the cells were switched into the low serum medium. The cells were collected and stained with propidium iodide (25 μg/ml). Apoptotic cells were defined as sub-2N DNA containing cells. Quantification of apoptosis was obtained using flow cytometry analysis with a Becton Dickinson FACSort.
as §2

Bt-474 cells = experiment: apoptosis assay, sub-2N DNA by flow cytometry; type: cell-based; settings: from 2.0+0.2 without PHLPP2
Procedure: as §3, §2

H157 cells [4] = experiment: apoptosis assay, sub-2N DNA by flow cytometry; type: cell-based; settings: serum deprivation; vector-transfected cells 3.1±0.1%
Procedure: as §3, §2

Akt [5] = experiment: Akt phosphorylation in cells overexpressing HA-PHLPP2 (Western blot); type: cell-based
Procedure: as §1

MEK 1/2 or ERK 1/2 = experiment: MAPK signaling pathway on PHLPP2 expression (Western blot); type: cell-based; settings: untreated cells
Procedure: as §1

B1: HA-PHLPP2: HA-tagged full length human PHLPP2 expressed from pcDNA3HA vector; PHLPP2 protein is SEQ ID NO: 4 (protein, listed as Homo sapiens)
chain: MKRNGSRNCLNRRSRFGSRERDWLREDVKRGCVYLYGADTTTATTTTTTSSSSSSSSSSSDLHLVLCTVETPASEICAGEGRESLYLQLHGDLVRRLEPTERPLQIVYDYLSRLGFDDPVRIQEEATNPDLGCMIRFYGEKPCHMDRLDRILLSGIYNVRKGKTQLHKWAERLVVLCGTCLIVSSVKDCQTGKMHILPLVGGKIEEVKRRQYSLAFSSAGAQAQTYHVSFETLAEYQRWQRQASKVVSQRISTVDLSCYSLEEVPEHLFYSQDITYLNLRHNFMQLERPGGLDTLYKFSQLKGLNLSHNKLGLFPILLCEISTLTELNLSCNGFHDLPSQIGNLLNLQTLCLDGNFLTTLPEELGNLQQLSSLGISFNNFSQIPEVYEKLTMLDRVVMAGNCLEVLNLGVLNRMNHIKHVDLRMNHLKTMVIENLEGNKHITHVDLRDNRLTDLDLSSLCSLEQLHCGRNQLRELTLSGFSLRTLYASSNRLTAVNVYPVPSLLTFLDLSRNLLECVPDWACEAKKIEVLDVSYNLLTEVPVRILSSLSLRKLMLGHNHVQNLPTLVEHIPLEVLDLQHNALTRLPDTLFSKALNLRYLNASANSLESLPSACTGEESLSMLQLLYLTNNLLTDQCIPVLVGHLHLRILHLANNQLQTFPASKLNKLEQLEELNLSGNKLKTIPTTIANCKRLHTLVAHSNNISIFPEILQLPQIQFVDLSCNDLTEILIPEALPATLQDLDLTGNTNLVLEHKTLDIFSHITTLKIDQKPLPTTDSTVTSTFWSHGLAEMAGQRNKLCVSALAMDSFAEGVGAVYGMFDGDRNEELPRLLQCTMADVLLEEVQQSTNDTVFMANTFLVSHRKLGMAGQKLGSSALLCYIRPDTADPASSFSLTVANVGTCQAVLCRGGKPVPLSKVFSLEQDPEEAQRVKDQKAIITEDNKVNGVTCCTRMLGCTYLYPWILPKPHISSTPLTIQDELLILGNKALWEHLSYTEAVNAVRHVQDPLAAAKKLCTLAQSYGCQDNVGAMVVYLNIGEEGCTCEMNGLTLPGPVGFASTTTIKDAPKPATPSSSSGIASEFSSEMSTSEVSSEVGSTASDEHNAGGLDTALLPRPERRCSLHPTPTSGLFQRQPSSATFSSNQSDNGLDSDDDQPVEGVITNGSKVEVEVDIHCCRGRDLENSPPLIESSPTLCSEEHARGSCFGIRRQNSVNSGMLLPMSKDRMELQKSPSTSCLYGKKLSNGSIVPLEDSLNLIEVATEVPKRKTGYFAAPTQMEPEDQFVVPHDLEEEVKEQMKQHQDSRLEPEPHEEDRTEPPEEFDTAL
modifications: HA tag
Q: B1 was tested. Which “dephosphorylation of Ser 473” value (Akt [1]) did it give?
A: 60+4%

Q: And the “effect on Thr 308 phosphorylation” value (Akt [1])?
A: no significant effect

Q: And the “reduction in Ser 473 phosphorylation of immunoprecipitated Akt” value (Akt [2]; 293T cells overexpressing PHLPP2, compared to vector-transfected cells)?
A: 70%

Q: What about the “reduction in substrate phosphorylation (GSK-3 fusion protein)” value (Akt [2]; Akt from 293T cells overexpressing PHLPP2) of the same molecule?
A: 80%

Q: And the “effect on the phosphorylation of the hydrophobic motif in PKC, p90RSK, or p70S6K” value (PKC, p90RSK, or p70S6K)?
A: no significant effect

Q: What about the “increase in the G1/S ratio” value (H157 cells [3]) of the same molecule?
A: approximately 2 fold

Q: What about the “increase in the G1/S ratio” value (293T cells) of the same molecule?
A: approximately 3 fold

Q: What about the “apoptosis (sub-2N-DNA content)” value (MDA-MB-231 cells) of the same molecule?
A: 11.5+3.6 relative units

Q: What about the “apoptosis (sub-2N-DNA content)” value (Bt-474 cells) of the same molecule?
A: 15.8+0.6 relative units

Q: And the “relative sub-2N DNA (apoptosis)” value (H157 cells [4])?
A: 28±5%

Q: And the “decrease in phosphorylation at Ser 473” value (Akt [5]; Bt-474 cell line)?
A: approximately 80%

Q: What about the “decrease in phosphorylation at Ser 473” value (Akt [5]; MDA-MB-231 cell line) of the same molecule?
A: ~70%

Q: What about the “effects on the phosphorylation of Thr 308” value (Akt [5]; overexpression in 293T and H157 cells) of the same molecule?
A: minimal effects

Q: What about the “reduction in phosphorylation at Ser 473” value (Akt [5]; overexpression in 293T cells) of the same molecule?
A: 76±3%

Q: And the “reduction in phosphorylation at Ser 473” value (Akt [5]; overexpression in H157 cells)?
A: 72+8%

Q: What about the “phosphorylation of MEK 1/2 or ERK 1/2” value (MEK 1/2 or ERK 1/2) of the same molecule?
A: did not alter
